Laboratory results published in IntAct's records for PubMed 38029384.

B1: Coiled-coil domain-containing protein 124 (Homo sapiens), Q96CT7 (parent)
chain: MPKKFQGENTKSAAARARRAEAKAAADAKKQKELEDAYWKDDDKHVMRKEQRKEEKEKRRLDQLERKKETQRLLEEEDSKLKGGKAPRVATSSKVTRAQIEDTLRRDHQLREAPDTAEKAKSHLEVPLEENVNRRVLEEGSVEARTIEDAIAVLSVAEEAADRHPERRMRAAFTAFEEAQLPRLKQENPNMRLSQLKQLLKKEWLRSPDNPMNQRAVPFNAPK

Legend:
npm_human NPM1, P06748 [1] = variants of: B1; settings: with npm_human NPM1, P06748
npm_human NPM1, P06748 [2] = variants of: B1; settings: with npm_human NPM1, P06748; remark: listed apart in the source

npm_human NPM1, P06748, sequence (P06748 whole entry): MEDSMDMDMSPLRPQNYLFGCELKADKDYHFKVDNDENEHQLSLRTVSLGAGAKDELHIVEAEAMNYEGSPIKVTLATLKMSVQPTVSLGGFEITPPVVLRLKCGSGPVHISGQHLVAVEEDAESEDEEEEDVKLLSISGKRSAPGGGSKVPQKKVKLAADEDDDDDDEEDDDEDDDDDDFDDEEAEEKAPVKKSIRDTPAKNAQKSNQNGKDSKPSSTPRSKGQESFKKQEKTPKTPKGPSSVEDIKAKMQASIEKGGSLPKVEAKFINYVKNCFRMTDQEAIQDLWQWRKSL

Variant: S122A
- effect of a mutation on the interaction (npm_human NPM1, P06748 [1]): decreasing interaction strength
- effect of a mutation on the interaction (npm_human NPM1, P06748 [2]): disrupting interaction strength

Variant: S122A;S141A
- effect of a mutation on the interaction (npm_human NPM1, P06748 [1]): decreasing interaction strength
- effect of a mutation on the interaction (npm_human NPM1, P06748 [2]): with no effect

Variant: S141A
- effect of a mutation on the interaction (npm_human NPM1, P06748 [1]): decreasing interaction strength
- effect of a mutation on the interaction (npm_human NPM1, P06748 [2]): with no effect
